Assay results reported in PMC10516418 (2023).

How the values were obtained:
Test in all cases: BLI
v3B_Δ15 = target: v3B_Δ15
v3B_Δ9 = target: v3B_Δ9
v3B_Δ18 = target: v3B_Δ18

B1: MPE8 antigen-binding fragment (Fab) (Fab, V domains shown)
VH: EVQLVESGGGLVKPGGSLRLSCAASGFTFSSYSMNWVRQAPGKGLEWVSSISASSSYSDYADSAKGRFTISRDNAKTSLFLQMNSLRAEDTAIYFCARARATGYSSITPYFDIWGQGTLVTVSS
VL: QSVVTQTPSVSGAPGQRVTISCTGSSSNIGAGYDVHWYQQLPGTAPKLLIYDNNNRPSGVPDRFSASKSGTSASLAITGLQAEDEADYYCQSYDRNLSGVFGTGTKVTVL
Q: Which results are given for B1?
A: Kd (v3B_Δ15): 62 nM; Kd (v3B_Δ9): 87 nM; Kd (v3B_Δ18): 690 nM
